Laboratory results: US20260028421A1 (JIANGSU HENGRUI PHARMACEUTICALS, published 2026)
Positions count from the first letter of the chain named.

Molecular target: T1, hGUCY2C ECD-His (human, UniProt P25092 24-430)
T1 construct: also called human GUCY2C protein
Assay: SPR Biacore, antibody captured
Description: To test the affinity of the GUCY2C monoclonal antibodies of the present disclosure for GUCY2C, in this test example, the instruments Biacore 8K and Biacore T200 were used to detect the ability of the antibodies to bind to hGUCY2C-ECD-His (SEQ ID NO: 3). The specific method is as follows: The antibody was affinity-captured using a Protein A biosensor chip conjugated with an anti-human antibody, then a solution containing GUCY2C Protein flowed on the surface of the chip, and reaction signals were detected in real time with an instrument to obtain association and dissociation curves. After dissociation was completed for each cycle, the biosensor chip was washed with 10 mM glycine-hydrochloric acid (pH 1.5) for regeneration. Data fitting was performed using a 1:1 model.

B1: M64 CHI (antibody, human IgG1, kappa, V domains shown)
VH: EVQLVESGGGLVKPGGSLKLSCAASGFTFSDYGMHWVRQAPEKGLEWVAYISSGSSTIYYADTVKGRFTISRDNAKNTLFLQMTSLRSEDTAMYYCARTRVYFYGSYWYFDVWGTGTTVTVSS
VL: QIVLTQSPAIMSASPGEKVTMTCSASSSVSYMYWYQQKSGTSPKRWIYDTSKLASGVPARFSGSGSGTSYSLTISSLEAEDAATYYCQQWSSDPPYTFGGGTKLEIKR
notes: chimeric
Kd: 20.4 nM
koff: 0.000348 s⁻¹
kon: 17100 M⁻¹ s⁻¹

B2: P1-C6 CHI (antibody, human IgG1, kappa, V domains shown)
VH: QVQLQQSGAELARPGASVKLSCKASGYTFTSYGITWVKRRTGQGLGWIGEIYPRSGNTYYNEKFKGKATLTADKSSSTAYMELRSLTSEDSAVYFCARAITTVVGDWYFDVWGTGTTVTVSS
VL: DIVLTQSPASLAMSLGKRATISCRASESVSLIGTNLIHWYQQKPGQPPKLLIHHASNLEAGVPARFSGSGSRTDFTLTIDPVEEDDVAIYYCLQSRKIRTFGGGTKLEIKR
notes: chimeric
Kd: 2.57 nM
koff: 0.000181 s⁻¹
kon: 70700 M⁻¹ s⁻¹

B3: P3-E4 CHI (antibody, human IgG1, kappa, V domains shown)
VH: QVQLQQPGAELVMPGAAVKLSCKASGYTFINYWMHWLKQRPGQGLEWIGEIDPSDGYTDYNQKFKGKATLTVDKSSSTAYMQLSSLTSEDSAVYYCAISLRGPITFGPFPYWGQGTLVTVSS
VL: DIVLTQSPASLAVSLGQRATISCRASESVSIHGTHLMHWYQQKPGQPPKLLIYAASNLESGVPARFSGSGSETDFTLNIHPVAEEDAATYFCQHSIEDPRTFGGGTKLEIKR
notes: chimeric
Kd: 12.9 nM
koff: 0.000228 s⁻¹
kon: 17700 M⁻¹ s⁻¹

B4: M81 CHI (antibody, human IgG1, kappa, V domains shown)
VH: EFQLQQSGPELVKPGASVKISCKASGYSFTDHNMNWVKQSNGKSLEWIGVMNPKFGTINYNQKFKDKATLTVDQSSSTAYMQLNSLTSEDSAVYYCVRDDYPNYFDYWGQGTTLTVSS
VL: QIVLTQSPAIMSASPGEKVTISCSASSSVNYMYWYQQKPGSSPKSWIYRTSNLASGVSARFSGSGSGTSYSLTISSMEAEDAATYYCQQYHDYPPTFGGGTKLEIKR
notes: chimeric, murine variable regions on human IgG1/kappa; also called M81CH1
Kd: 0.27 nM
koff: 5.9e-05 s⁻¹
kon: 216000 M⁻¹ s⁻¹

B5: M146 CHI (antibody, human IgG1, kappa, V domains shown)
VH: EFQLQQSGPELVKPGASVKISCKASGYSFTDYNMNWVKQSNGKSLEWIGLINPKYGTTNYNQKFKGKATLTVDQSSSTAYMQLNSLTSEDSAVYYCAIDDYPAWFAYWGQGTLVTVSA
VL: B4 VL with V29L, S58P, D92S, G99A, I105L
notes: chimeric
Kd: 0.46 nM
koff: 9.22e-05 s⁻¹
kon: 203000 M⁻¹ s⁻¹

B6: 81 L3H2 (antibody, human IgG1, kappa, V domains shown)
VH: EVQLVQSGAEVKKPGASVKVSCKASGYTFTDHNMNWVKQAPGQRLEWMGVMNPKFGTINYNQKFKDKATITRDTSASTAYMELSSLRSEDTAVYYCARDDYPNYFDYWGQGTTVTVSS
VL: DIQLTQSPSFLSASPGDRVTITCSASSSVNYMYWYQQKPGSSPKSWIYRTSNLASGVPSRFSGSGSGTEYTLTISSLQPEDFATYYCQQYHDYPPTFGGGTKVEIKR
notes: h81 H2 + h81 L3
Kd: 0.41 nM
koff: 0.000103 s⁻¹
kon: 251000 M⁻¹ s⁻¹

B7: 81 L2H2 (antibody, human IgG1, kappa, V domains shown)
VH: B6 VH
VL: EIVLTQSPDFQSVTPGEKVTITCSASSSVNYMYWYQQKPDQSPKSWIYRTSNLASGVPSRFSGSGSGTDFTLTISSLEAEDAATYYCQQYHDYPPTFGGGTKVEIKR
notes: h81 H2 + h81 L2
Kd: 0.46 nM
koff: 0.000127 s⁻¹
kon: 274000 M⁻¹ s⁻¹

B8: 81 L4H2 (antibody, human IgG1, kappa, V domains shown)
VH: B6 VH
VL: B6 VL with L53D
notes: h81 H2 + h81 L4
Kd: 0.98 nM
koff: 0.000207 s⁻¹
kon: 212000 M⁻¹ s⁻¹

B9: 81 L6H2 (antibody, human IgG1, kappa, V domains shown)
VH: B6 VH
VL: B6 VL with S51Q
notes: h81 H2 + h81 L6
Kd: 0.47 nM
koff: 0.000114 s⁻¹
kon: 241000 M⁻¹ s⁻¹

B10: P3-C7 L2H1 (antibody, human IgG1, kappa, V domains shown)
VH: EVQLVQSGAEVKKPGASVKVSCKASGYTFTDHYIHWVRQAPGQGLEWMGVINPYNDGATYNQKFKGRVTMTVDKSTSTVYMELSSLRSEDTAVYYCARPPRAYGNYAGYWGQGTTVTVSS
VL: DVVMTQTPLSLPVTPGEPASISCRSSQSLVHSNGNTYLHWYLQKPGQSPQLLIYKVSNRFSGVPDRFSGSGSRTDFTLKISRVEAEDVGVYYCSQSTHVPYTFGGGTKVEIKR
notes: hP3-C7 H1 + L2
Kd: 5.35 nM
koff: 0.000166 s⁻¹
kon: 31000 M⁻¹ s⁻¹

B11: P3-C7 CHI (antibody, human IgG1, kappa, V domains shown)
VH: EVQLQQSGPVLLKPGASVKMSCKASGYTFTDHYIHWVKLSHGKSLEWIGVINPYNDGATYNQKFKGKATLTVDKSSSTAYMELNSLTSEDSAVYYCARPPRAYGNYAGYWGQGTTLTVSS
VL: B10 VL with T14S, P15L, E17D, P18Q, Q50K, S68I, V88L, Y92F, K108R, V109L
notes: chimeric; also called P3-C7 CH1
Kd: 6.61 nM
koff: 0.000149 s⁻¹
kon: 22600 M⁻¹ s⁻¹

B12: P3-C7 L4H1 (antibody, human IgG1, kappa, V domains shown)
VH: B10 VH
VL: B10 VL with N33S
notes: hP3-C7 H1 + L4
Kd: 73.4 nM
koff: 0.00209 s⁻¹
kon: 28500 M⁻¹ s⁻¹

B13: P3-C7 L1H1 (antibody, human IgG1, kappa, V domains shown)
VH: B10 VH
VL: B10 VL with V2I, R73G
notes: hP3-C7 H1 + L1
Kd: 6.55 nM
koff: 0.000156 s⁻¹
kon: 23700 M⁻¹ s⁻¹

B14: P3-C7 L3H1 (antibody, human IgG1, kappa, V domains shown)
VH: B10 VH
VL: B10 VL with N33Q
notes: hP3-C7 H1 + L3
Kd: 47.5 nM
koff: 0.00135 s⁻¹
kon: 28400 M⁻¹ s⁻¹

B15: P3-C7 L5H1 (antibody, human IgG1, kappa, V domains shown)
VH: B10 VH
VL: B10 VL with N33T
notes: hP3-C7 H1 + L5
Kd: 26.7 nM
koff: 0.000719 s⁻¹
kon: 26900 M⁻¹ s⁻¹

B16: P2-B9 CHI (antibody, human IgG1, kappa, V domains shown)
VH: QVQLQQPGAELVKPGASVKLSCKASGYTFSSYWMHWVKQRPGQGLEWIGMIHPKSDSVNNNEKFKNKATLTVDKSSSTVYLQLSSLTSEDSAVYSCARGGDSGYSMDYWGQGTSVTVSS
VL: DIVLTQSPASLAVSLGQKATISCKASKKVTIFGSISALHWYQQKPGQPPKLIYNGAKLESGVSARFSDSGSQNRSPFGNQLSFTLTIDPVEADDAATYYCLQNKEVPYTFGGGTKLEIKR
notes: chimeric
Kd: 3.02 nM
koff: 0.000175 s⁻¹
kon: 58100 M⁻¹ s⁻¹

B17: P2-C8 CHI (antibody, human IgG1, kappa, V domains shown)
VH: B11 VH with L12V, A24V, H32Y, I34M, L39Q, V50L, D56G, G57V, A58T, T59S
VL: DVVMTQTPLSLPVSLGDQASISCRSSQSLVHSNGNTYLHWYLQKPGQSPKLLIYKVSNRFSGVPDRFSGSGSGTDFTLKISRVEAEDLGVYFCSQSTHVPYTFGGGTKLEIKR
notes: chimeric
Kd: 5.12 nM
koff: 0.000178 s⁻¹
kon: 34900 M⁻¹ s⁻¹

B18: P3-D2 CHI (antibody, human IgG1, kappa, V domains shown)
VH: B11 VH with L12V, H32Y, Y33F, I34M, L39Q, V50L, N55S, D56G, A58T, N105D
VL: DVVMTQTPLSLPVSLGDQASISCRSSQSLVHSNGNTYLHWYLQKPGQSPKLLIYKVSNRFSGVPDRFSGSGSGTDFTLKISRVEAEDLGVYFCSQSTHVPLTFGTGTKLEIKR
notes: chimeric
Kd: 4.5 nM
koff: 0.000173 s⁻¹
kon: 38600 M⁻¹ s⁻¹
